Measurements as given in patent publication US20260285996 (published 2026).

B1: Belimumab (antibody)
chain 1: not shown
chain 2: SSELTQDPAVSVALGQTVRVTCQGDSLRSYYASWYQQKPGQAPVLVIYGKNNRPSGIPDRFSGSSSGNTASLTITGAQAEDEADYYCSSRDSSGNHWVFGGGTELTVLGQPKAAPSVTLFPPSSEELQANKATLVCLISDFYPGAVTVAWKADSSPVKAGVETTTPSKQSNNKYAASSYLSLTPEQWKSHRSYSCQVTHEGSTVEKTVAPTECS
B2: Ab363A (antibody, V domains shown)
VH: QVQLQQSGAEVKKPGSSVRVSCKASGGTFNNDAINWVRQAPGQGLEWMGGIFPMFGTAKYSQNFQGRVAITADESTGTASMELSSLRSEDTAVYYCARSRDPLLYPHHALSPWGRGTMVTVSS
VL: SSELTQDPAVSVALGQTVRVTCQGDSLRYYYASWYQQKPGQAPVLVIYGKNNRPSGIPDRFSGSSSGNTASLTITGAQAEDEADYYCSSRDSSGNNWVFGGGTELTVL

Tests used:
human BLyS (BAFF) trimer [1] = molecular target: T1, human BLyS (BAFF) trimer (human, UniProt Q9Y275); test: competition, BCMA:Fc
cyno FcRn = molecular target: T2, cyno FcRn (cynomolgus monkey); test: SPR, pH 6.0
T2 chain 1: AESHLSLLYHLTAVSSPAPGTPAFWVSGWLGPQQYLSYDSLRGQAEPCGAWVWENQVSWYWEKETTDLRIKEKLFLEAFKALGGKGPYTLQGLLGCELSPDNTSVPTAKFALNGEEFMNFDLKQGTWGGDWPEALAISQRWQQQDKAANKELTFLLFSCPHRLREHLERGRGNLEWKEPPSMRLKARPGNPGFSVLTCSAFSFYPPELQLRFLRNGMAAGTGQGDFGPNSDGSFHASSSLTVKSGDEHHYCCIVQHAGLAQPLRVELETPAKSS
T2 chain 2: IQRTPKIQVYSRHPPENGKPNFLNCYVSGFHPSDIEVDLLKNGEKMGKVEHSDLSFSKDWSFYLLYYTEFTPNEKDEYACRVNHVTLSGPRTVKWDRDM

human BLyS 60-mer = human BLyS 60-mer (human, UniProt Q9Y275); test: SPR
human BLyS (BAFF) trimer [2] = molecular target: T1, human BLyS (BAFF) trimer; test: competition, BAFFR on CHO-K1 cells
human BLyS (BAFF) trimer [3] = molecular target: T1, human BLyS (BAFF) trimer; test: competition, TACI:Fc
human FcRn = human FcRn (human, UniProt P55899); test: SPR, pH 6.0
human BLyS (BAFF) trimer [4] = molecular target: T1, human BLyS (BAFF) trimer; test: competition, BAFF-R:Fc

Row | Binder | IC50 (human BLyS (BAFF) trimer [1]) | Kd (cyno FcRn) | binding result (human BLyS 60-mer) | IC50 (human BLyS (BAFF) trimer [2]) | IC50 (human BLyS (BAFF) trimer [3]) | Kd (human FcRn) | IC50 (human BLyS (BAFF) trimer [4])
1 | B1 | 0.126 nM | 760 nM | no binding | 0.0302 nM | 0.2 nM | 753 nM | 0.1 nM
2 | B2 |  |  | no binding |  |  |  | 
